Source: US20190367631A1 (Regeneron, published 2019)
Numbering of substitutions follows the chain as printed. Names and notes keep the numbering of the source.

T1: human MSR1 extracellular domain expressed with a N-terminal nonahistidine tag (His9-hMSR1); R&D Systems, Cat … (human, UniProt P21757 77-451)
T1 construct: extracellular domain; Bought reagent; also called His-hMSR1; 9xHis-hMSR1
T1 sequence: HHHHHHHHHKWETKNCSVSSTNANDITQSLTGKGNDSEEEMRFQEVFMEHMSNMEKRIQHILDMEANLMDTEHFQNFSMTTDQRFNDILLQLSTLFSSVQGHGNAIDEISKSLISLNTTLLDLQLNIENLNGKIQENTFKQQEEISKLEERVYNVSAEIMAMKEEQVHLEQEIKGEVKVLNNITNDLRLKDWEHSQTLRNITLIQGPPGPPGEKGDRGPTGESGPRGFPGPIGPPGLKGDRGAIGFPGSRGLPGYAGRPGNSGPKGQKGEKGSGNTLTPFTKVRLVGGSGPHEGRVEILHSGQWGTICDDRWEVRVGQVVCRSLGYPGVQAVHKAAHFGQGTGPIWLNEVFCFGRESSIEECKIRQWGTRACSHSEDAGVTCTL

B1: H1H27739P-N297Q (antibody, human IgG1, V domains shown)
VH: EVQLVESGGGLVQPGGSLRLSCTASGFTFSSYAMSWVRQAPGKGLEWVSAISGTGSSTYFTDSVKGRFAISRDNSKNTLYLQMNSLRAEDTAVYYCAKDGEWLSTVTLFDYWGQGTLVTVSS
VL: EIVMTQSPATLSVSPGERATLSCRASQSVSSNLAWYQQKPGQAPRLLIYGASTRATGIPARFSGSGSGTDFTLTISSLQSEDFALYYCQQYFIWPPHPTFGPGTKVDIKR
notes: human IgG1 Fc with N297Q (EU)
B2: H1H27739P-N297Q-LP1 (antibody, human IgG1, V domains shown)
VH: B1 VH
VL: B1 VL
modifications: LXR agonist linker-payload LP1 clicked to azido-PEG3-amine on Q295 and Q297 (EU) of the heavy chain constant region
notes: antibody-drug conjugate; human IgG1 Fc with N297Q (EU); also called H1H27739P-LP1
B3: H1H27729P-N297Q (antibody, human IgG1, V domains shown)
VH: QVQLVESGGGLVKPGGSLRLSCAASGFIFSDYYMSWIRQAPGKGLEWVSYISSSGTTIYGDSVKGRFTMSRDNAKNSLYLQMNSLRAEDTAVYYCARNYALFDYWGQGTLVTVSS
VL: DIQMTQSPSSLSASVGDRVTITCQASQDISKYLNWYQQKPGKAPKLLIYYTSNLETGVPSRFSGSGSGTDFTFTISSLQPEDIATYYCHQSDYLPFTFGPGTKVDIKR
notes: human IgG1 Fc with N297Q (EU)
B4: H1H27729P-N297Q-LP1 (antibody, human IgG1, V domains shown)
VH: B3 VH
VL: B3 VL
modifications: LXR agonist linker-payload LP1 clicked to azido-PEG3-amine on Q295 and Q297 (EU) of the heavy chain constant region
notes: antibody-drug conjugate; human IgG1 Fc with N297Q (EU); also called H1H27729P-LP1
B5: H1H27749P-N297Q-LP1 (antibody, human IgG1, V domains shown)
VH: QVQLQESGPGLVKPSETLSLTCTVSDGSISSYYWSWIRQPPGRGLEWIGFIYYSGSTSYNPSLKSRVTISVDTSMSQFSLKLRSVTAADTAVYYCARGSPFDYWGPGTLVTVSS
VL: EIVLTQSPGTLSLSPGERATLSCRASQSVSSSYLAWYQQRPGQAPSLLISGASRRATGIPDRFSGSGSGTDFTLTIRRLEPEDFAMYYCQQYGSSPPTFGGGTKVEIKR
modifications: LXR agonist linker-payload LP1 clicked to azido-PEG3-amine on Q295 and Q297 (EU) of the heavy chain constant region
notes: antibody-drug conjugate; human IgG1 Fc with N297Q (EU); also called H1H27749P-LP1
B6: H1H27762P-N297Q (antibody, human IgG1, V domains shown)
VH: QVQLVQSGAEVKKPGSSVKVSCKASGGTFSRYDISWVRQAPGQGLEWMGGIIPIFGTSNYAQKFQGRVTITTDESTSTVYMELSSLRSEDTAVYYCARGGRYGWFDPWGQGTLVTVSS
VL: not shown
notes: human IgG1 Fc with N297Q (EU); also called H1H27762P2-N297Q
B7: H1H27762P-N297Q-LP1 (antibody, human IgG1, V domains shown)
VH: B6 VH
VL: not shown
modifications: LXR agonist linker-payload LP1 clicked to azido-PEG3-amine on Q295 and Q297 (EU) of the heavy chain constant region
notes: antibody-drug conjugate; human IgG1 Fc with N297Q (EU); also called H1H27762P2-LP1
B8: H1xH29283P2 (antibody, V domains shown)
VH: B6 VH with A9T, D33T, I34F, S58T, A97T
VL: not shown
notes: the prefix H1xH is not explained; captured by anti-human Fc
B9: H1H27760P-N297Q (antibody, human IgG1, V domains shown)
VH: EVQLVESGGGLVQPGRSLRLSCAASGFTFDAYAMHWVRQAPGKGLEWVSGISWNSGSIGYADSVKGRFTISRDNAKNSLYLQMNSLREEDTALYYCAKDKILELYYYGMDVWGQGTTVTVSS
VL: not shown
notes: human IgG1 Fc with N297Q (EU); also called H1H27760P2-N297Q
B10: H1H27760P-N297Q-LP1 (antibody, human IgG1, V domains shown)
VH: B9 VH
VL: not shown
modifications: LXR agonist linker-payload LP1 clicked to azido-PEG3-amine on Q295 and Q297 (EU) of the heavy chain constant region
notes: antibody-drug conjugate; human IgG1 Fc with N297Q (EU)
B11: H1xH29273P2 (antibody, V domains shown)
VH: QVQLVESGGGVVQSGRSLRLSCAAAGFTFSNYGMHWVRQAPGKGLEWVALMSFDGSDKYYADSVKGRFTISRDNSKNTLYLQMNSLRAEDTALYYCAKGYDFWSGYWDYWGQGTLVTVSS
VL: not shown
notes: as for B8
B12: H1xH29282P2 (antibody, V domains shown)
VH: EVQLVESGGGLVQPGGSLRLSCAASGFTFSTYAMSWVRQAPGKGLEWVSTISGRSDITYFADSVKGRFTVSRDNSKTTLYLQMNSLRAEDTAVYYCATDDDLPLDYWGQGTLVTVSS
VL: not shown
notes: as for B8
B13: H1H27761P-N297Q (antibody, human IgG1, V domains shown)
VH: EVQLVESGGDLVQPGGSLRLSCSASGFTFNIYAMSWVRQAPGKGLEWVSGISGSGGSTYYADSVKGRFTISRDNSKNTLYFQMNSLRVEDTAVYYCAKKISSSSYYYYAMDVWGQGTTVTVSS
VL: not shown
notes: human IgG1 Fc with N297Q (EU); also called H1H27761P2-N297Q
B14: H1H27761P-N297Q-LP1 (antibody, human IgG1, V domains shown)
VH: B13 VH
VL: not shown
modifications: LXR agonist linker-payload LP1 clicked to azido-PEG3-amine on Q295 and Q297 (EU) of the heavy chain constant region
notes: as for B10
B15: H1H27734P-N297Q (antibody, human IgG1, V domains shown)
VH: EVQLVESRGGLVQPGGSLRLSCAASGFTFSSYAMSWVRQAPGKGLEWVSAISGSGGSTFYADSVKGRFTISRDNSKNTVYLQMNSLRAEDTAVYYCAKALVLRFLEWLGDYWGQGTLVTVSS
VL: DIQMTQSPSTLSASVGDRVTITCRASQSISSWLAWFQQKPGKAPKLLIYKASSLESGVPSRFSGSGSGTEFTLTISSLQPDDFATYYCQQYKSYWTFGQGTKVEIKR
notes: human IgG1 Fc with N297Q (EU)
B16: H1H27734P-N297Q-LP1 (antibody, human IgG1, V domains shown)
VH: B15 VH
VL: B15 VL
modifications: LXR agonist linker-payload LP1 clicked to azido-PEG3-amine on Q295 and Q297 (EU) of the heavy chain constant region
notes: antibody-drug conjugate; human IgG1 Fc with N297Q (EU); also called H1H27734P-LP1
B17: H1H27759P-N297Q (antibody, human IgG1, V domains shown)
VH: EVQLVESGGGFVQPGGSLRLSCAASGFTFSSYAMSWVRQAPGKGLEWVSAISGTGSNTYYADSVKGRFTISRDNSKNTLYLQMNSLRAEDTAVYYCAKDRVTTVTYYFDYWGQGTLVTVSS
VL: not shown
notes: human IgG1 Fc with N297Q (EU); also called H1H27759P2-N297Q
B18: H1H27759P-N297Q-LP1 (antibody, human IgG1, V domains shown)
VH: B17 VH
VL: not shown
modifications: LXR agonist linker-payload LP1 clicked to azido-PEG3-amine on Q295 and Q297 (EU) of the heavy chain constant region
notes: as for B10
B19: H1H27751P-N297Q (antibody, human IgG1, V domains shown)
VH: EVQLVESGGGLVQPGGSLRLSCAASGFTFSNYAMHWVRQAPGKGLEYVSAISSNGGSTYYADSVKGRITISRDNSKNTLYLQMGSLRAEDMAVYYCARGRPYYYYFGMDVWGQGTTVTVSS
VL: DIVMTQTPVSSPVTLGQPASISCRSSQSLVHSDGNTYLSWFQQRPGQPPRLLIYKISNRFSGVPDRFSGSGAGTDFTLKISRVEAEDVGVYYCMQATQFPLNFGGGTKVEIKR
notes: human IgG1 Fc with N297Q (EU)
B20: H1H27751P-N297Q-LP1 (antibody, human IgG1, V domains shown)
VH: B19 VH
VL: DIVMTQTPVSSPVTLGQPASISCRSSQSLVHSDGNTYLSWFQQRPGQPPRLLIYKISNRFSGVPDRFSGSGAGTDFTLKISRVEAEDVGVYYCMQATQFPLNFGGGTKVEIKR
modifications: LXR agonist linker-payload LP1 clicked to azido-PEG3-amine on Q295 and Q297 (EU) of the heavy chain constant region
notes: as for B10
B21: H1H27731P-N297Q (antibody, V domains shown)
VH: QLQLQESGPGLVKPSETLSLTCTVSGGSISRISYYWGWIRQPPGKGLEWIGSIYDSGSTYYNPSLKSRVTISIDTSKNQFSLKLSSVTAADTAVYYCVRYSSSSAFAFDYWGQGTLVTVSS
VL: DIQMTQSPSSVSASVGDRVTITCRASQGISSWLAWYQQKPGKAPKLLIYAASSLQSGVPSRFSGSGSGTDFTLTISSLQPEDFATYYCQQANSFPFTFGPGTKVDIKR
notes: human IgG1 Fc with N297Q (EU)
B22: H1H27747P-N297Q-LP1 (antibody, human IgG1, V domains shown)
VH: QVQLVESGGAVVQPGRSLRLSCAASGFTFSYYGMHWVRQAPGKGLEWVAVISYDGSKKYYADSVKGRFTISRDNSKNTLYLQMNSLRAEDTAVYYCAKDLTVDFYYGMDVWGQGTTVTVSS
VL: B21 VL with A51T, V58A, Y87F, F96Y, P100Q, V104L, D105E
modifications: LXR agonist linker-payload LP1 clicked to azido-PEG3-amine on Q295 and Q297 (EU) of the heavy chain constant region
notes: antibody-drug conjugate; human IgG1 Fc with N297Q (EU); also called H1H27747P-LP1
B23: H1H27756P-N297Q (antibody, human IgG1, V domains shown)
VH: QVQLVESGGGVVQPGRSLRLSCAASGFTFSNYDMHWVRQAPGKGLEWMAVISYDGINKYYADSVKGRFTISRDNSKNTLYLQMNSLRAEDTAVYYCAKGTYSWYFDLWGRGTLVTVSS
VL: not shown
notes: human IgG1 Fc with N297Q (EU)
B24: H1H27756P-N297Q-LP1 (antibody, human IgG1, V domains shown)
VH: B23 VH
VL: not shown
modifications: LXR agonist linker-payload LP1 clicked to azido-PEG3-amine on Q295 and Q297 (EU) of the heavy chain constant region
notes: antibody-drug conjugate; human IgG1 Fc with N297Q (EU); also called H1H27756P-LP1
B25: H1H27766P-N297Q-LP1 (antibody, human IgG1, V domains shown)
VH: EVQLVESGGGLVQPGGSLRLSCAASGFTFSSFAMSWVRQAPGKELEWVSSISGRGGSTYYADSVRGRFTISRDNSKITLYLQMNSLRAEDTAVYYCAKDIVFRYTSSAYWYFDLWGRGTLVTVSS
VL: not shown
modifications: LXR agonist linker-payload LP1 clicked to azido-PEG3-amine on Q295 and Q297 (EU) of the heavy chain constant region
notes: antibody-drug conjugate; human IgG1 Fc with N297Q (EU); also called H1H27766P2-LP1

Biological target: T1, human MSR1 extracellular domain …
Experiment: SPR Biacore T200, 25 C, antibody captured by anti-human Fc, His9-hMSR1 injected;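 also: running buffer HBS-ET pH 7.4, rates from sensorgrams fitted to a 1:1 model including mass transport limitation, KD and half-life derived from the kinetic constants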
Experimental: All binding studies were performed in 10 mM HEPES, 300 mM NaCl, 3 mM EDTA, and 0.05% v/v Surfactant Tween-20, pH 7.4 (HBS-ET) running buffer at 25° C.
The association rate (kₐ) and dissociation rate (kd) were determined by fitting the real-time binding sensorgrams to a 1:1 binding model with mass transport limitation using Scrubber 2.0c curve-fitting software. Binding dissociation equilibrium constant (KD) and dissociative half-life (t½) were calculated from the kinetic rates as:

Kd [nM] | koff [s⁻¹] | kon [M⁻¹ s⁻¹] | t½ [min] | Binder
4.68 | 0.000555 | 119000 | 20.8 | B1
8.14 | 0.000722 | 88800 | 16 | B2
8.67 | 0.000906 | 105000 | 12.8 | B3
13.1 | 0.000718 | 54700 | 16.1 | B4
 |  | 140000 |  | B5
1.38 | 0.00056 | 405000 | 20.6 | B6
1.29 | 0.000623 | 483000 | 18.5 | B7
13.4 | 0.00185 | 139000 | 6.2 | B8
1.66 |  |  | 30.2 | B9
1.67 | 0.000434 | 259000 | 26.6 | B10
93 | 0.00763 | 82000 | 1.5 | B11
43.7 | 0.00362 | 82800 | 3.2 | B12
0.609 | 0.000362 | 595000 | 31.9 | B13
2.02 | 0.000511 | 253000 | 22.6 | B14
7.72 | 0.000596 | 77200 | 19.4 | B15
6.49 | 0.000449 | 69300 | 25.7 | B16
4.23 | 0.000435 | 103000 | 26.6 | B17
4.57 | 0.000595 | 130000 | 19.4 | B18
0.833 | 0.000175 | 210000 | 66.1 | B19
0.664 | 0.000152 | 229000 | 76.1 | B20
≤ 0.0855 | ≤ 1e-05 | 117000 | 1160 | B21
1.49 | 0.000203 | 136000 | 56.9 | B22
1.65 |  |  | 97.4 | B23
1.76 | 0.00011 | 62700 | 105 | B24
0.0649 | 2.7e-05 | 416000 | 427 | B25
